T1: human BDCA2 (human, UniProt Q8WTT0 1-213)
T1 sequence (looked up): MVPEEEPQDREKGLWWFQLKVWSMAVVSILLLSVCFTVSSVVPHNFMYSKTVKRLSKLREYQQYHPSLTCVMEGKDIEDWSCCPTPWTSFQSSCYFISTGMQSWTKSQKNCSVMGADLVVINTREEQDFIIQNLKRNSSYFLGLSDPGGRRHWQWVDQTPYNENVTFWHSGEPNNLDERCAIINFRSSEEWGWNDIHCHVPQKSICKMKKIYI

T2: cynomolgus BDCA2 (cynomolgus monkey, UniProt A0A2K5UWP4 1-212)
T2 construct: whole, on cells; also called Cyno BDCA2; cynoBDCA2
T2 sequence: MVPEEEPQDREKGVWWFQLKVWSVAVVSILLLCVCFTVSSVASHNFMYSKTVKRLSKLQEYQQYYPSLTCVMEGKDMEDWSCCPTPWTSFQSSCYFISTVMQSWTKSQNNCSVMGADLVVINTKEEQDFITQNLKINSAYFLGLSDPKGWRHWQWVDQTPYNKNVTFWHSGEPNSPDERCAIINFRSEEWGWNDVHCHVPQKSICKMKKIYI


Legend:
human BDCA2 [1] = target: T1, human BDCA2; assay: cell-based or functional assay
cynomolgus BDCA2 [2] = target: T2, cynomolgus BDCA2; assay: FACS on 293F-cynoBDCA2 cells; EC50 table under the plot, unit from the x axis (nM)
Description: (§1) The cells were recovered and resuspended to 2×10⁶/mL with FACS buffer (PBS+2% FBS). The cells were added to 3799 cell plates (Corning) at 100 μL/well, and the supernatant was discarded after centrifugation at 300 g. The antibodies were serially diluted with FACS buffer (Id.), the diluted antibodies were added to centrifuged cells and the cells were resuspended. The cells were incubated at 4° C. for 1 h. The incubated cells were then centrifuged at […] for 5 min and washed twice with FACS buffer. 100 μL Donkey anti-Mouse IgG (H+L) Highly Cross-Adsorbed Secondary Antibody-Alexa Fluor 488 (Invitrogen, A21202; 1:1000) secondary antibody was added to the cells, which were washed twice with FACS buffer after incubation at 4° C. for 1 h, resuspended with PBS, analyzed with FACS (BD FACS CantoTM II) instrument. The curve was fitted with GraphPad Prism6, and EC₅₀ values were calculated.

human BDCA2 [3] = target: T1, human BDCA2; assay: FACS on CHOK1-hBDCA2 cells; EC50 table under the plot, unit from the x axis (nM)
Description: as §1

human BDCA2 [4] = target: T1, human BDCA2; assay: as above; remark: listed apart in the source
Description: The cells were recovered and resuspended to 2×10⁶/mL with FACS buffer (PBS+2% FBS). The cells were added to 3799 cell plates (Corning) at 100 μL/well, and the supernatant was discarded after centrifugation at 300 g. The antibodies were serially diluted with FACS buffer (Id.), the diluted antibodies were added to centrifuged cells and the cells were resuspended. The cells were incubated at 4° C. for 1 h. The incubated cells were centrifuged at 300 g for 5 min and washed twice with FACS buffer. 100 μL […] anti-Human IgG (H+L) Cross-Adsorbed Secondary Antibody-Alexa Fluor 488 (Sigma, A11013; 1:1000) secondary antibody was added, washed twice with FACS buffer after incubation at 4° C. for 1 h, resuspended with PBS, analyzed with FACS (BD FACS CantoTM II) instrument and curve fitted with GraphPad Prism6, and EC₅₀ values were calculated.

human BDCA2 [5] = target: T1, human BDCA2; assay: FACS, CHOK1-humanBDCA2 cells
Description: The cells were recovered and resuspended to 2×10⁶/mL with FACS buffer (PBS+2% FBS). The resuspended cells were added to 3799 cell plates at 100 μL/well, and the supernatant was discarded after centrifugation at 300 g. […] The cells were incubated at 4° C. for 1 h. The incubated cells were centrifuged at […] for 5 min and washed twice with FACS buffer. 100 μL Goat anti-Human IgG (H+L) Cross-Adsorbed Secondary Antibody, Alexa Fluor 488 (Sigma, A11013; 1:1000) secondary antibody was added, washed twice with FACS buffer after incubation at 4° C. for 1 h. The cells were resuspended with PBS, then the fluorescence signal of antibodies bound to cell surface was analyzed with FACS (BD FACS CantoTM II) instrument and curves were fitted with GraphPad Prism6 to calculate EC₅₀ values for antibodies binding to BDCA2 antigen.

human BDCA2 [6] = target: T1, human BDCA2; assay: FACS on CHOK1-hBDCA2 cells; EC50 table under the plot, unit from the x axis (nM) [continued) d.]
Description: as §1

[7] = target: T3, Human BDCA2 Fc recombinant protein (human); assay: ELISA, coated humanBDCA2 Fc
T3 construct: Human IgG1 Fc N-terminal of the BDCA2 extracellular domain (Asn45-Ile213), fused by a linker; also called BDCA2-Fc protein
Description: HumanBDCA2 Fc protein or cynoBDCA2 His protein was diluted with PBS to 1 μg/mL and added to ELISA microplates at 100 μL/well and incubated at 4° C. overnight. The plates were blocked with ELISA blocking solution (PBS phosphate buffer with 1% BSA, pH 7.4, the percentages representing mass percentages) at 37° C. for 2 hours. Sequential 10-fold serial dilutions of antibodies were added at 8 concentrations (0.0001 nM-100 nM, including 0 point control) in total at 100 μL/well. The plates were incubated at 37° C. for 1 hour, then washed 3 times and after anti-mouse IgG (Fab specific)-HRP (Sigma, A3682; 1: 5000 dilution) secondary antibodies were added at 100 μL/well, were incubated at 37° C. for 1 h. The plates were washed 3 times, TMB development fluid (EL0009, Huzhou Ying Chuang Biotechnology) was added at 100 μL/well and 50 μL 1N hydrochloric acid was added after incubation at 37° C. for 10 min to stop the development reaction. OD450 nm values were read with ELISA plate reader and the curve was fitted with GraphPad Prism6, and EC₅₀ values were calculated.

cynomolgus BDCA2 [8] = target: T2, cynomolgus BDCA2; assay: FACS on 293F-cynoBDCA2 cells; EC50 table under the plot, unit from the x axis (nM) [continued) d.]
Description: as §1

Row | Binder | EC50 (cynomolgus BDCA2 [2]) [nM] | EC50 (human BDCA2 [3]) [nM] | EC50 (human BDCA2 [6]) [nM] | EC50 [7] [nM] | EC50 (cynomolgus BDCA2 [8]) [nM] | also measured
1 | mAb005 (antibody, V domains shown, Mouse hybridoma antibody) VH: QVQLKQSGPGLVQPSQSLSITCTVSGFSLTNYGVHWVRQSPGKGLEWLGVIWSGESTDYDAAFISRLSISKDNSKSQVFFKMNSLQADDSAIYYCARRRSHYYGYVMDYWGQGTSVTVSS VL: DIVLTQSPASLAVSLGQRATISCKASQSIDYDGIGYLNWYQHKPGQPPKLLIYAASNLESGIPARFSGSGSGTDFTLNIHPVEEEDAATYYCQQSNEDPPTFGSGTKLEIK | 2.11 | 1.83 | – | – | – | IC50 for inhibiting cytokine IFNα release, CpG-A stimulated human PBMC (human BDCA2 [1]): 0.0867 nM
2 | mab005c (antibody, V domains shown) VH: QVQLKQSGPGLVQPSQSLSITCTVSGFSLTNYGVHWVRQSPGKGLEWLGVIWSGESTDYDAAFISRLSISKDNSKSQVFFKMNSLQADDSAIYYCARRRSHYYGYVMDYWGQGTSVTVSS VL: DIVLTQSPASLAVSLGQRATISCKASQSIDYDGIGYLNWYQHKPGQPPKLLIYAASNLESGIPARFSGSGSGTDFTLNIHPVEEEDAATYYCQQSNEDPPTFGSGTKLEIK | – | – | – | – | – | EC50 (human BDCA2 [4]): 0.964 nM; IC50, inhibition of IFNα secretion, CpG-A stimulated human PBMC (human BDCA2 [1]): 0.00836 nM; EC50 (human BDCA2 [5]): 2.2 nM
3 | mAb028 (antibody, V domains shown, Mouse hybridoma antibody) VH: DVQLQESGPGLVKPSQSLSLTCSVTGYSISSGYYWNWIRQFPGNKLECMGYISYDGSNYYNPSLKNRISITRDTSKNQFFLSLNSVTTEDTATYFCVRGGDYDDGGFAYWGQGTLVTVSA VL: DIQMTQSPASLSASVGETVTITCRASGNIHNYLAWYQQKQGKSPQLLVYNAKTLADGVPSRFSGSGSETQYSLKINSLQPEDFGNYFCQHFWIIPYTFGGGTKLEIK | – | – | 0.251 | < 0.3 | 0.28 | –
4 | mAb001 (antibody, V domains shown, Mouse hybridoma antibody) VH: QIQLVQSGPELKKPGETVKISCKASGYTFTDFSMHWVKQAPGKGLKWMGWINTETGEPTYADDFKGRFAFSLETSASTAFLQINNLKNDDTTTYFCSRGGDGHPYWYFAVWGAGTTVTVSS VL: DIVLTQSPASLAVSLGQRATISCRASQSVSTSSYSYMHWYQQKPGQPPKLLIKYASILESGVPARFSGSGSGTDFTLNIHPVEEEDTATYYCQHSWEIPFTFGSGTKLEIK | 6.08 | 1.37 | – | – | – | –
5 | mAb002 (antibody, V domains shown, Mouse hybridoma antibody) VH: QIQLVQSGPELKKPGETVKISCRASGYSFTDYSMHWVKQAPGKGLKWVGWINTETGEPTYADDFKGRFALSLETSATSAYLQINNLKNEDTATYFCARGGDGFPYWYFNVWGAGTTVTVSS VL: DIVLTQSPTSLAVSLGQRTNISCRASQSVSTSSNSYIHWYQQKPGQPPKLLIKYASNLDSGVPARFSGSGSGTDFTLNIHPVEEEDTSTYYCQHSWEIPFTFGSGTKLEIK | 7.05 | 1.89 | – | – | – | –
6 | mAb026 (antibody, V domains shown, Mouse hybridoma antibody) VH: DVQLQESGPGLVKPSQSLSLTCSVTGYSITSAYYWNWIRQFPGHKLEWMGYISYDGSNNYNPSLKNRISITRDTSKNQFFLKLNSVTTEDTATYHCARGVDYPNAIDWWGQGTSLTVSS VL: DIVLTQSPTSLTVSLGQRATISCRASESVSIHGTHLMHWYQQKPGQPPKLLIYVASYLESGVPARFSGSGSETDFSLNIHPVEEEDAATYFCQQSFEDPWTFGGGTKLEIK | – | – | 0.773 | < 0.3 | 2.49 | –
7 | mAb032 (antibody, V domains shown, Mouse hybridoma antibody) VH: DVQLQESGPGLVKPSQSLSLTCSVTGYSITSGYYWNWIRQFPGNKLECMGYISYDGSNYYNPSLKNRISITRDTSKNQFFLSLNSVTTEDTATYFCVRGGDYDDGGFAYWGQGTLVTVSA VL: DIQMTQSPASLSASVGETVTITCRASGNIHNYLAWYQQKQGKSPQLLVYNAKTLADGVPSRFSGSGSETQYSLKINSLQPEDFGNYFCQHFWIIPYTFGGGTKLEIK | – | – | 0.225 | < 0.3 | 0.359 | –

Source: patent US20250346673A1 (DUALITY BIOLOGICS SUZHOU, published 2025)
